Assay type in all cases: cell-based
The test system of assay [1] is E15.5 CBA mouse fetal pancreas cells. In words: Cystic colony formation of E15.5 fetal mouse pancreas cells in laminin-1 overlay culture. The following applies: BMP alone.
Assay [2] shares this test system. The assay is described as above. The following applies: laminin-1 160 μg/ml. On the procedure:
Pancreata were dissected from embryonic day (E)15.5 CBA mouse fetuses and dissociated into single cells as described (Jiang et al., 1999). Briefly, dissected pancreas was digested with trypsin/EDTA for 15 minutes at 37° C. in a shaking water bath. Cells were counted in a haemocytometer and viability determined by trypan blue dye exclusion. Each fetal pancreas yielded 50,000 viable cells (48,509±11,299, n=14). Dissociated cells were plated in 8 well chamber slides (Nunc, Naperville, USA) at 7.5×10^4 cells/well in 0.3 ml AIM V medium supplemented with N-2 (1:100, Gibco BRL Life Technologies, Gaithersburg, USA), 500 UI/ml penicillin and 500 μg/ml streptomycin. Laminin-1 (160 μg/ml), purified from murine Engelbreth-Holm-Swarm tumor basement membrane (Becton Dickinson Labware, Bedford, USA), was overlayed on cells in the presence of various growth factors. Cultures were incubated in 10% CO2 90% air at 37° C., for up to 6 days. Recombinant human BMP 6 and BMP 5, recombinant human TGF-β1 and recombinant activin A were purchased from R&D Systems (Minneapolis, USA). These factors, dissolved at a concentration of 10 ng/μl in mouse tonicity phosphate buffered saline (PBS) containing 0.1% w/v bovine serum albumin (BSA), were added at the start of culture. Phase contrast images of colonies were photographed with Olympus IX70 digitized camera.
Colony formation was assessed at day 6 of culture. A colony was defined as a cellular sphere ≧30 μm in diameter, which contained more than 20 cells. The number of colonies per well was counted directly under a inverted microscope at ×10. Colony counts were performed using a blind design.

The subject of assay [3] is C2C12 myoblasts. The experiment in a line: C2C12 cell BMP bioassay (transformation of myoblasts into alkaline phosphatase-containing osteoblasts). The following applies: conditioned medium of stably transfected CHO cells, compared to medium of untransfected CHO cells. As to the method:
BMP activity was measured in the C2C12 cell bioassay, in which BMPs transform C2C12 myoblasts into alkaline phosphatase-containing osteoblasts (Katagiri et al., 1994). Briefly, CHO cells were plated at a density of around 5×10^6 per 75 cm^2 flask in serum-free HYBRIDOMA medium (Gibco BRL Life Technology) (SFHM) containing 10% v/v FCS. Once the cells had reached confluency, the medium was removed, the cells washed twice with SFHM and 10 ml of SFHM then added to each flask. The cells were cultured for four days and the conditioned medium collected, filtered through a 2 micron filter and stored at 4° C.
2×10^3 C2C12 cells were plated into each well of a 96-well tissue culture plate in DME/10% v/v FCS. Twenty-four hours later, the medium was removed and replaced with 100 μl SFHM/1% v/v FCS. 50 μl of each conditioned medium was added in duplicate to the top row of the 96-well plate and the volume of these wells then made up to 200 μl. Using a multi-channel pipette, 100 μl from each well was then serially transferred to subsequent rows thus diluting the conditioned medium 2-fold with each transfer. After incubation for five days, the media were discarded and the cells washed with normal saline. Cells were lysed for 10 mins at room temperature (RT) in 100 μl 0.5% v/v TritonX-100 and 100 mM diethanolamine (pH 9.5) in normal saline. To each well was then added an aqueous solution containing 10 mM diethanolamine, 1 mg/ml p-nitrophenyl phosphate (PNPP) and 0.5 mM MgCl2. The yellow reaction product catalyzed by alkaline phosphatase was allowed to develop for 10-60 mins before reading absorption at 415 nm.

This note sets out measurements from patent US6967100B2, “Pancreatic islet cell growth factors” (The Walter and Eliza Hall Institute of Medical Research, priority 2000, dated 2005).

B1: BMP 6: recombinant human BMP 6 purchased from R&D Systems (protein, UniProt P22004 375-513, looked up)
Bone morphogenetic protein 6: SASSRRRQQSRNRSTQSQDVARVSSASDYNSSELKTACRKHELYVSFQDLGWQDWIIAPKGYAANYCDGECSFPLNAHMNATNHAIVQTLVHLMNPEYVPKPCCAPTKLNAISVLYFDDNSNVILKKYRNMVVRACGCH
As for B1, the “colony formation in the absence of laminin-1” value in assay [1] is given as “no effect”. For the same molecule, in assay [2] (day 6, fewer colonies at higher concentrations), the “concentration of maximal stimulation of colony formation” value turned out to be 10 ng/mL. In assay [2] (up to 6 days), the “formation of cystic colonies in the presence of laminin-1” value was “synergized with laminin-1 to promote formation of cystic colonies”. For the same molecule, the “BMP activity of conditioned medium (alkaline phosphatase activity of C2C12 cells)” value in assay [3] is given as “significant BMP activity was never detected”.
